T1: MinD (E. coli) (E. coli, UniProt P0AEZ3 1-270)
T1 construct: source: E. coli Rosetta(DE3)pLysS, purified (nickel IMAC, desalting); His tag removed with thrombin; not shown: T7 tag, N-terminal, kept
T1 sequence (looked up): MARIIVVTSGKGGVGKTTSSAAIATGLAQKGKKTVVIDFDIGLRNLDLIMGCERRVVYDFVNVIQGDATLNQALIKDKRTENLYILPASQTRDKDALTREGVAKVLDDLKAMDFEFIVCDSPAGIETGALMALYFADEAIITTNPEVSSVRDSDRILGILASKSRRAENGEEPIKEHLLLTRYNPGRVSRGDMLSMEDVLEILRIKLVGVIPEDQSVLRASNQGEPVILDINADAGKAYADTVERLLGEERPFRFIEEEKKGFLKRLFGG

B1: MinC-1xAGGSG linker mutant (natural protein, E. coli)
chain: MSNTPIELKGSSFTLSVVHLHEAEPKVIHQALEDKIAQAPAFLKHAPVVLNVSALEDPVNWSAMHKAVSATGLRVIGVSGCKDAQLKAEIEKMGLPILTEGAGGSGPVTKTRLIDTPVRSGQRIYAPQCDLIVTSHVSAGAELIADGNIHVYGMMRGRALAGASGDRETQIFCTNLMAELVSIAGEYWLSDQIPAEFYGKAARLQLVENALTVQPLN
notes: MinC, E. coli MG1655, N-terminal part before the linker, residues 1-101; linker that replaces residues 102-120 of MinC; MinC, E. coli MG1655, C-terminal part after the linker, residues 121-231; source: E. coli Rosetta(DE3)pLysS, purified (nickel IMAC, desalting); His tag removed with thrombin; not shown: T7 tag, N-terminal, kept
B2: MinC-2xAGGSG linker mutant (natural protein, E. coli)
chain: MSNTPIELKGSSFTLSVVHLHEAEPKVIHQALEDKIAQAPAFLKHAPVVLNVSALEDPVNWSAMHKAVSATGLRVIGVSGCKDAQLKAEIEKMGLPILTEGAGGSGAGGSGPVTKTRLIDTPVRSGQRIYAPQCDLIVTSHVSAGAELIADGNIHVYGMMRGRALAGASGDRETQIFCTNLMAELVSIAGEYWLSDQIPAEFYGKAARLQLVENALTVQPLN
notes: MinC, E. coli MG1655, N-terminal part before the linker, residues 1-101; linker that replaces residues 102-120 of MinC: AGGSG repeated twice; MinC, E. coli MG1655, C-terminal part after the linker, residues 121-231; source: E. coli Rosetta(DE3)pLysS, purified (nickel IMAC, desalting); His tag removed with thrombin; not shown: T7 tag, N-terminal, kept
B3: MinC-3xAGGSG linker mutant (natural protein, E. coli)
chain: MSNTPIELKGSSFTLSVVHLHEAEPKVIHQALEDKIAQAPAFLKHAPVVLNVSALEDPVNWSAMHKAVSATGLRVIGVSGCKDAQLKAEIEKMGLPILTEGAGGSGAGGSGAGGSGPVTKTRLIDTPVRSGQRIYAPQCDLIVTSHVSAGAELIADGNIHVYGMMRGRALAGASGDRETQIFCTNLMAELVSIAGEYWLSDQIPAEFYGKAARLQLVENALTVQPLN
notes: MinC, E. coli MG1655, N-terminal part before the linker, residues 1-101; linker that replaces residues 102-120 of MinC: AGGSG repeated three times; MinC, E. coli MG1655, C-terminal part after the linker, residues 121-231; source: E. coli Rosetta(DE3)pLysS, purified (nickel IMAC, desalting); His tag removed with thrombin; not shown: T7 tag, N-terminal, kept
B4: MinC-4xAGGSG linker mutant (natural protein, E. coli)
chain: MSNTPIELKGSSFTLSVVHLHEAEPKVIHQALEDKIAQAPAFLKHAPVVLNVSALEDPVNWSAMHKAVSATGLRVIGVSGCKDAQLKAEIEKMGLPILTEGAGGSGAGGSGAGGSGAGGSGPVTKTRLIDTPVRSGQRIYAPQCDLIVTSHVSAGAELIADGNIHVYGMMRGRALAGASGDRETQIFCTNLMAELVSIAGEYWLSDQIPAEFYGKAARLQLVENALTVQPLN
notes: MinC, E. coli MG1655, N-terminal part before the linker, residues 1-101; linker that replaces residues 102-120 of MinC: AGGSG repeated four times; MinC, E. coli MG1655, C-terminal part after the linker, residues 121-231; source: E. coli Rosetta(DE3)pLysS, purified (nickel IMAC, desalting); His tag removed with thrombin; not shown: T7 tag, N-terminal, kept
B5: MinE (E. coli) (natural protein, UniProt P0A734 1-88, looked up)
chain: MALLDFFLSRKKNTANIAKERLQIIVAERRRSDAEPHYLPQLRKDILEVICKYVQIDPEMVTVQLEQKDGDISILELNVTLPEAEELK
notes: a T7 tag from pET28a may be left; source: E. coli Rosetta(DE3)pLysS, purified (nickel IMAC, desalting)
B6: MinC-GS linker mutant (natural protein, E. coli)
chain: MSNTPIELKGSSFTLSVVHLHEAEPKVIHQALEDKIAQAPAFLKHAPVVLNVSALEDPVNWSAMHKAVSATGLRVIGVSGCKDAQLKAEIEKMGLPILTEGGSPVTKTRLIDTPVRSGQRIYAPQCDLIVTSHVSAGAELIADGNIHVYGMMRGRALAGASGDRETQIFCTNLMAELVSIAGEYWLSDQIPAEFYGKAARLQLVENALTVQPLN
notes: MinC, E. coli MG1655, N-terminal part before the linker, residues 1-101; linker that replaces residues 102-120 of MinC; MinC, E. coli MG1655, C-terminal part after the linker, residues 121-231; Made from pET28a-MinC by amplifying the whole plasmid except residues 102-120; source: E. coli Rosetta(DE3)pLysS, purified (nickel IMAC, desalting); His tag removed with thrombin; not shown: T7 tag, …
B7: MinC19RL linker mutant (natural protein, E. coli)
chain: MSNTPIELKGSSFTLSVVHLHEAEPKVIHQALEDKIAQAPAFLKHAPVVLNVSALEDPVNWSAMHKAVSATGLRVIGVSGCKDAQLKAEIEKMGLPILTEGAGGSGAGGSGAGGSGAGGSPVTKTRLIDTPVRSGQRIYAPQCDLIVTSHVSAGAELIADGNIHVYGMMRGRALAGASGDRETQIFCTNLMAELVSIAGEYWLSDQIPAEFYGKAARLQLVENALTVQPLN
notes: MinC, E. coli MG1655, N-terminal part before the linker, residues 1-101; linker that replaces residues 102-120 of MinC: as the 4x linker but without the last glycine, 19 residues; MinC, E. coli MG1655, C-terminal part after the linker, residues 121-231; source: E. coli Rosetta(DE3)pLysS, purified (nickel IMAC, desalting); His tag removed with thrombin; not shown: T7 tag, N-terminal, kept

target: T1, MinD (E. coli); assay: co-sedimentation; liposome co-sedimentation without DNA, competition: MinD 1 uM, MinC 1 uM, increasing MinE, 160 ug/mL liposomes, 1 mM ATP, ATPase buffer; SDS-PAGE, Coomassie; conditions: both partners purified

Binding result, binds:
B1
B2
B3
B4
B5

target: T1, MinD (E. coli); assay: co-sedimentation; liposome co-sedimentation without DNA: MinD 2 uM, MinC 2 uM, 0.5 mg/mL liposomes, 1 mM ATP, ATPase buffer (25 mM Tris-HCl pH 7.5, 50 mM KCl, 5 mM MgCl2, 5% glycerol); SDS-PAGE, Coomassie; conditions: both partners purified

Binding result, binds:
B6
B7

From publication doi:10.1101/2025.02.06.636808, “DNA Binding by the Escherichia coli MinC–MinD Complex Requires the MinC Interdomain Linker” (bioRxiv, 2025)
